From publication PMC11876703, “Structural basis for human NKCC1 inhibition by loop diuretic drugs” (The EMBO Journal, 2025) come the findings set out here.

In series [1] the target is T1, phospho-activated human NKCC1 (Na+-K+-Cl- cotransporter 1) (human), P55011.
T1 chain: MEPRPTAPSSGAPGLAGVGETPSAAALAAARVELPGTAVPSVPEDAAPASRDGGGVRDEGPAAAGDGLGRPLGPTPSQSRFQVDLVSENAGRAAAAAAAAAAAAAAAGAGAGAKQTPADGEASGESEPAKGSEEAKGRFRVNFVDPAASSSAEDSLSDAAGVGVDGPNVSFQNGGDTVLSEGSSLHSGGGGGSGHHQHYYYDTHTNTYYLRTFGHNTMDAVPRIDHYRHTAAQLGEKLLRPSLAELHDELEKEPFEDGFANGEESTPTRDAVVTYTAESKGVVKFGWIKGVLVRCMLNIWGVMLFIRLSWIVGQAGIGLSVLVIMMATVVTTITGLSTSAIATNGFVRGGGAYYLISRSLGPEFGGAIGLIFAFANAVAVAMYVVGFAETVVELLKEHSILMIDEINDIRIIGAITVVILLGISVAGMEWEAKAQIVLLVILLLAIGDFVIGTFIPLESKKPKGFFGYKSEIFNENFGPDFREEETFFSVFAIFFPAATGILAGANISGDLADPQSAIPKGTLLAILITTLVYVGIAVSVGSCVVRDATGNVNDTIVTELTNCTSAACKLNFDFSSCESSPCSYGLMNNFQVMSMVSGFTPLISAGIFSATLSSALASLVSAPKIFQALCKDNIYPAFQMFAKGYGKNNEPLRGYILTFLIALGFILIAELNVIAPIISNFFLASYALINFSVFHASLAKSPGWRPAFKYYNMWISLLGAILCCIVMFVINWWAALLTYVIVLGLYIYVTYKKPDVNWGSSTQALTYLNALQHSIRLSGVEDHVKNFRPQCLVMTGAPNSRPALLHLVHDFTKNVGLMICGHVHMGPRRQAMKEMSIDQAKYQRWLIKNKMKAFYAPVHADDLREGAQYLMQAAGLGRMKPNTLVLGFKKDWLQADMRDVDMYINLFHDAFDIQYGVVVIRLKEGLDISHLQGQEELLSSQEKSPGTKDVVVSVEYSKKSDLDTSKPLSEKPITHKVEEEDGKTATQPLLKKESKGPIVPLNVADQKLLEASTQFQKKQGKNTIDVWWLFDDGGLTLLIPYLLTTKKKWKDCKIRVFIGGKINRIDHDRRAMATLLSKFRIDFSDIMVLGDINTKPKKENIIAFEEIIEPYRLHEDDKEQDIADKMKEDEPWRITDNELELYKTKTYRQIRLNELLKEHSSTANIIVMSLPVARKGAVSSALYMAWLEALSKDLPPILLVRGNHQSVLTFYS
Nature of the series: cryo-EM structure; purified pNKCC1 in GDN, 20 mM HEPES pH 7.4, with 100 uM bumetanide, 100 uM torsemide (K+-free buffer) or 2 mM furosemide plus 100 uM ATP; homodimer. The following applies: remark: other sources report otherwise.

Series [2] concerns the molecule itself. Described as above.

B1: phospho-activated human NKCC1 (Na+-K+-Cl- cotransporter 1), P55011 1-1212 (natural protein)
chain: MEPRPTAPSSGAPGLAGVGETPSAAALAAARVELPGTAVPSVPEDAAPASRDGGGVRDEGPAAAGDGLGRPLGPTPSQSRFQVDLVSENAGRAAAAAAAAAAAAAAAGAGAGAKQTPADGEASGESEPAKGSEEAKGRFRVNFVDPAASSSAEDSLSDAAGVGVDGPNVSFQNGGDTVLSEGSSLHSGGGGGSGHHQHYYYDTHTNTYYLRTFGHNTMDAVPRIDHYRHTAAQLGEKLLRPSLAELHDELEKEPFEDGFANGEESTPTRDAVVTYTAESKGVVKFGWIKGVLVRCMLNIWGVMLFIRLSWIVGQAGIGLSVLVIMMATVVTTITGLSTSAIATNGFVRGGGAYYLISRSLGPEFGGAIGLIFAFANAVAVAMYVVGFAETVVELLKEHSILMIDEINDIRIIGAITVVILLGISVAGMEWEAKAQIVLLVILLLAIGDFVIGTFIPLESKKPKGFFGYKSEIFNENFGPDFREEETFFSVFAIFFPAATGILAGANISGDLADPQSAIPKGTLLAILITTLVYVGIAVSVGSCVVRDATGNVNDTIVTELTNCTSAACKLNFDFSSCESSPCSYGLMNNFQVMSMVSGFTPLISAGIFSATLSSALASLVSAPKIFQALCKDNIYPAFQMFAKGYGKNNEPLRGYILTFLIALGFILIAELNVIAPIISNFFLASYALINFSVFHASLAKSPGWRPAFKYYNMWISLLGAILCCIVMFVINWWAALLTYVIVLGLYIYVTYKKPDVNWGSSTQALTYLNALQHSIRLSGVEDHVKNFRPQCLVMTGAPNSRPALLHLVHDFTKNVGLMICGHVHMGPRRQAMKEMSIDQAKYQRWLIKNKMKAFYAPVHADDLREGAQYLMQAAGLGRMKPNTLVLGFKKDWLQADMRDVDMYINLFHDAFDIQYGVVVIRLKEGLDISHLQGQEELLSSQEKSPGTKDVVVSVEYSKKSDLDTSKPLSEKPITHKVEEEDGKTATQPLLKKESKGPIVPLNVADQKLLEASTQFQKKQGKNTIDVWWLFDDGGLTLLIPYLLTTKKKWKDCKIRVFIGGKINRIDHDRRAMATLLSKFRIDFSDIMVLGDINTKPKKENIIAFEEIIEPYRLHEDDKEQDIADKMKEDEPWRITDNELELYKTKTYRQIRLNELLKEHSSTANIIVMSLPVARKGAVSSALYMAWLEALSKDLPPILLVRGNHQSVLTFYS
modifications: here or on the partner: phosphothreonine at Thr212, Thr217 and Thr230 (verified by mass spectrometry); Thr203, Thr205 and Thr207 also named as phosphoacceptor sites confirmed by mass spectrometry; phosphothreonine at Thr212, Thr217 and Thr230 (verified by mass spectrometry); Thr203, Thr205 and Thr207 also named as phosphoacceptor sites confirmed by mass spectrometry
As to B1, the stoichiometry N in series [1] was 2.

B2: phospho-activated human NKCC1 bearing K289N and A492E mutations (natural protein, UniProt P55011 1-1212, looked up)
chain: MEPRPTAPSSGAPGLAGVGETPSAAALAAARVELPGTAVPSVPEDAAPASRDGGGVRDEGPAAAGDGLGRPLGPTPSQSRFQVDLVSENAGRAAAAAAAAAAAAAAAGAGAGAKQTPADGEASGESEPAKGSEEAKGRFRVNFVDPAASSSAEDSLSDAAGVGVDGPNVSFQNGGDTVLSEGSSLHSGGGGGSGHHQHYYYDTHTNTYYLRTFGHNTMDAVPRIDHYRHTAAQLGEKLLRPSLAELHDELEKEPFEDGFANGEESTPTRDAVVTYTAESKGVVKFGWINGVLVRCMLNIWGVMLFIRLSWIVGQAGIGLSVLVIMMATVVTTITGLSTSAIATNGFVRGGGAYYLISRSLGPEFGGAIGLIFAFANAVAVAMYVVGFAETVVELLKEHSILMIDEINDIRIIGAITVVILLGISVAGMEWEAKAQIVLLVILLLAIGDFVIGTFIPLESKKPKGFFGYKSEIFNENFGPDFREEETFFSVFEIFFPAATGILAGANISGDLADPQSAIPKGTLLAILITTLVYVGIAVSVGSCVVRDATGNVNDTIVTELTNCTSAACKLNFDFSSCESSPCSYGLMNNFQVMSMVSGFTPLISAGIFSATLSSALASLVSAPKIFQALCKDNIYPAFQMFAKGYGKNNEPLRGYILTFLIALGFILIAELNVIAPIISNFFLASYALINFSVFHASLAKSPGWRPAFKYYNMWISLLGAILCCIVMFVINWWAALLTYVIVLGLYIYVTYKKPDVNWGSSTQALTYLNALQHSIRLSGVEDHVKNFRPQCLVMTGAPNSRPALLHLVHDFTKNVGLMICGHVHMGPRRQAMKEMSIDQAKYQRWLIKNKMKAFYAPVHADDLREGAQYLMQAAGLGRMKPNTLVLGFKKDWLQADMRDVDMYINLFHDAFDIQYGVVVIRLKEGLDISHLQGQEELLSSQEKSPGTKDVVVSVEYSKKSDLDTSKPLSEKPITHKVEEEDGKTATQPLLKKESKGPIVPLNVADQKLLEASTQFQKKQGKNTIDVWWLFDDGGLTLLIPYLLTTKKKWKDCKIRVFIGGKINRIDHDRRAMATLLSKFRIDFSDIMVLGDINTKPKKENIIAFEEIIEPYRLHEDDKEQDIADKMKEDEPWRITDNELELYKTKTYRQIRLNELLKEHSSTANIIVMSLPVARKGAVSSALYMAWLEALSKDLPPILLVRGNHQSVLTFYS
modifications: phosphothreonine at Thr212, Thr217 and Thr230 (verified by mass spectrometry; pT212 and pT217 clearly seen in the map, pT230 tentatively modeled); Thr203, Thr205 and Thr207 also named as phosphoacceptor sites confirmed by mass spectrometry
notes: Used for the furosemide/ATP-Mg2+ co-structure; The tag was used for Strep-Tactin purification and no cleavage step is described; also called pNKCC1; NKCC1 (furosemide co-structure); source: calyculin-A treated; purified (Strep-Tactin resin, Superose 6) in GDN with 100 uM ATP
For B2, the “stoichiometry N” value in series [2] worked out at 2.

The term stoichiometry N denotes the number of molecules, sites or subunits per partner or assembly.
